Results on 73 sequences are retold here after the supplement of paper PMC10567573.

This series is described as follows: protein stability index of a GFP-peptide fusion (GPS, HEK-293T) (PSI 1-6); higher = more stable. The settings on record: c terminus: a fixed tail appended.

± gives the standard deviation.
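Note: 24-mer peptide tiles fused after GFP, lentivirally expressed, FACS-sorted into six equal bins by GFP/DsRed ratio, decoded by Illumina sequencing, PSI is the read-weighted mean bin number.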

For the sequence EKQLAKKEQSKELQMKLEKLREKE [FAM50A], the protein stability index worked out at 5.34 ± 0.35 (treatment: DMSO) and 5.17 ± 0.39 (treatment: MLN4924 1 uM, 8 h).
The sequence EKYKPFSQVPTGEVFYYSCEYNFV [CFHR2] had a protein stability index (treatment: DMSO) of 2.78 ± 1.5.
In the case of ELAYMKKNHEEEMKEFSNQVVGQV [KRT13], the protein stability index by setting is: (treatment: DMSO) 4.7 ± 0.26; (treatment: MLN4924 1 uM, 8 h) 4.66 ± 0.14.
The corresponding values for ELFYRVNYIGTKNVIETCKEAGVQ [NSDHL] are 2.14 ± 0.21 and 2.08 ± 0.54.
Taken in the same sequence, the figures for ELGEEPQPRDEEEAELELLRQFDL [POLD4] were 5.41 ± 0.26 and 5.51 ± 0.3.
For ELIRNIYNSFHKLRDRAERIASRA [SNX8], the protein stability index is 2.22 ± 0.75 (treatment: DMSO) and 2.17 ± 0.27 (treatment: MLN4924 1 uM, 8 h).
ELKKLKNLEGNELQRHADEFLLDL [FUT8]: the protein stability index worked out at 3.61 ± 0.25 (treatment: DMSO) and 3.59 ± 0.3 (treatment: MLN4924 1 uM, 8 h).
As for ELKRLVESRRQQILREFEELHRRL [TRIM39], the protein stability index reads like this: (treatment: DMSO) 2.44 ± 0.31; (treatment: MLN4924 1 uM, 8 h) 2.72 ± 0.38.
Taken in the same sequence, the figures for ELQSLMHQPKGLEEENAQLRGALQ [PBXIP1] were 4.25 ± 0.23 and 4.04 ± 0.29.
With ELRTAKDSDDDDDVAVTVDRDRFM [STX1A], the protein stability index reads like this: (treatment: DMSO) 5.37 ± 0.06; (treatment: MLN4924 1 uM, 8 h) 5.25 ± 0.14.
The corresponding values for ELVALIPHSDQRLRPQRTKQYVLL [TMEM106C] are 2.02 ± 0.33 and 2.17 ± 0.22.
Taken in the same sequence, the figures for EMGGSEGIVESIQIMKEGKATASE [NETO1] were 5.58 ± 0.21 and 5.611 ± 0.038.
Taken in the same sequence, the figures for EMQIENLKEELAYLKKNHEEEMNA [KRT17] were 4.67 ± 0.24 and 4.88 ± 0.33.
As for ENKQVVIIHHMRLQAKALQLIVTA [INTS4], the protein stability index by setting is: (treatment: DMSO) 3.01 ± 0.56; (treatment: MLN4924 1 uM, 8 h) 3.03 ± 0.44.
Regarding ENLSVPVIGALLRFNQAILVSRHD [LPCAT4], the protein stability index is 2.43 ± 0.61 (treatment: DMSO) and 2.5 ± 0.34 (treatment: MLN4924 1 uM, 8 h).
Consider EPFPSSDDSPRSALAAATAAAAAA [SPAG8], for which the protein stability index came out at 5.2 ± 0.16 (treatment: DMSO) and 5.05 ± 0.18 (treatment: MLN4924 1 uM, 8 h).
Turning to EPGNFIPLFTPQSPVTATLSDEDD [CDC25A], the protein stability index came to 5.56 ± 0.18 (treatment: DMSO) and 5.69 ± 0.13 (treatment: MLN4924 1 uM, 8 h).
Regarding EPPPPLHNNNNNCEENEQSLPPPA [BNIP3L], the protein stability index is, setting by setting: (treatment: DMSO) 5.51 ± 0.27; (treatment: MLN4924 1 uM, 8 h) 5.68 ± 0.13.
As for EPSFAQFSQEIGLASLGASEEAVQ [TPH1], the protein stability index by setting is: (treatment: DMSO) 5.17 ± 0.61; (treatment: MLN4924 1 uM, 8 h) 4.99 ± 0.37.
Taken in the same sequence, the figures for EPSIAPTSCAGNLPSRPPPLLSPL [RSPH3] were 3.72 ± 0.2 and 3.83 ± 0.14.
The corresponding values for EQERRLSEARLSQRDLSPTAEDAE [FCHSD1] are 5.41 ± 0.23 and 5.6 ± 0.26.
Taken in the same sequence, the figures for EQKAAGSASAKRVWNMTATRPKKM [FATE1] were 4.43 ± 0.16 and 4.39 ± 0.22.
On to EQLIEAISNGDFESYTKMCDPGMT [CAMK2A], for which the protein stability index amounted to 3.92 ± 0.28 (treatment: DMSO) and 3.76 ± 0.44 (treatment: MLN4924 1 uM, 8 h).
Taken in the same sequence, the figures for EQSSCTMTPDIHELVENIKSVLKS [FAM189A2] were 2.19 ± 0.29 and 2.4 ± 0.37.
Taken in the same sequence, the figures for ERIDCQGIPPSSKDKLGVWVYKNK [KLHDC2] were 3.75 ± 0.23 and 3.64 ± 0.34.
Taken in the same sequence, the figures for ERILGPSHPDTSYYIRYRGAVYAD [FEM1A] were 2.94 ± 0.2 and 2.92 ± 0.29.
Regarding ERLQAAGTDSAGPKTVPSHVFSEL [ELOA2], the protein stability index is 4.06 ± 0.15 (treatment: DMSO) and 4.4 ± 0.14 (treatment: MLN4924 1 uM, 8 h).
For the sequence ERTQLRLESLEDTHIMKGEDDALS [TRIB1], the protein stability index by setting is: (treatment: DMSO) 5.27 ± 0.21; (treatment: MLN4924 1 uM, 8 h) 5.34 ± 0.41.
ERVTVAKLTLENFYSNLILQHEER [STK38L] had a protein stability index (treatment: DMSO) of 2.85 ± 0.28 and a protein stability index (treatment: MLN4924 1 uM, 8 h) of 2.99 ± 0.31.
Taken in the same sequence, the figures for ESACSSDSLDEARSSGSEGTPADT [PWWP2B] were 5.7 ± 0.11 and 5.5 ± 0.21.
Taken in the same sequence, the figures for ESLQELRLLLAGAEVQAKLENAEV [HES6] were 2.84 ± 0.41 and 3.15 ± 0.4.
The corresponding values for ETPQPSPPGGSGSEPYKLLPGAVA [HNF4A] are 5.06 ± 0.21 and 4.92 ± 0.11.
On to ETQLKACASFIRTRLLLQFTQPQQ [C8orf76], for which the protein stability index reads like this: (treatment: DMSO) 2.93 ± 0.65; (treatment: MLN4924 1 uM, 8 h) 2.86 ± 0.88.
Regarding ETREYAPPSRGHGYRDYGHSRRHE [RBMY1A1], the protein stability index amounted to 4.58 ± 0.35 (treatment: DMSO) and 4.71 ± 0.13 (treatment: MLN4924 1 uM, 8 h).
The corresponding values for EVAEQLELERIGPQHQAGSDSLLT [CNOT7] are 4.9 ± 0.14 and 4.85 ± 0.15.
Taken in the same sequence, the figures for EVDVQEAGAGWWVGAAYASLRRRG [TRIM14] were 3.4 ± 0.28 and 3.38 ± 0.4.
The corresponding values for EVILGDIWKLNLQTFQWVKLPATM [KLHDC10] are 2.51 ± 0.51 and 2.21 ± 0.3.
As to EWASHTAALTNKHSQELTNEKEKA [SASS6], the protein stability index by setting is: (treatment: DMSO) 5.574 ± 0.002; (treatment: MLN4924 1 uM, 8 h) 5.39 ± 0.19.
The corresponding values for EYIDPETKKHIPYREHKSLTGTAR [CSNK1G1] are 4.15 ± 0.28 and 4.08 ± 0.42.
The corresponding values for FAESLQCKVDCEANLTPNVGGYFV [P3H4] are 2.22 ± 0.9 and 2.42 ± 0.65.
The corresponding values for FALIAVVFLASGAVSVMKKCRKLE [SLC19A2] are 3.18 ± 0.35 and 3 ± 0.29.
For FATPEREMRISESAASGARFPLDS [PCDHGC5], the protein stability index turned out to be 4.44 ± 0.11 (treatment: DMSO) and 4.57 ± 0.3 (treatment: MLN4924 1 uM, 8 h).
Taken in the same sequence, the figures for FDIARIERCNQLLRALKLVITALK [ZER1] were 2.33 ± 0.6 and 2.41 ± 0.37.
As to FDVHPNELTNGVINAAFMLLFKDL [SNAP91], the protein stability index by setting is: (treatment: DMSO) 2.84 ± 0.81; (treatment: MLN4924 1 uM, 8 h) 2.24 ± 0.41.
For the sequence FEREPSTSDLGTTDVQKKKLVDAI [RIPK4], the protein stability index is 4.62 ± 0.084 (treatment: DMSO) and 4.87 ± 0.29 (treatment: MLN4924 1 uM, 8 h).
Taken in the same sequence, the figures for FETQLKTLCQFPETLLGDPKRRMR [KCNA3] were 3.54 ± 0.35 and 3.65 ± 0.28.
FFAFLHCWLNAFAEMLRFGDRMFY [SOAT2]: the protein stability index by setting is: (treatment: DMSO) 3.14 ± 0.56; (treatment: MLN4924 1 uM, 8 h) 3.44 ± 0.23.
Regarding FGGGYGGGLGGGYGGGLGGGFGGG [KRT13], the protein stability index reads like this: (treatment: DMSO) 2.37 ± 1.4; (treatment: MLN4924 1 uM, 8 h) 2.88 ± 0.15.
Taken in the same sequence, the figures for FGGQNAHNQIAIYAHQPRTADEIP [FUT8] were 3.43 ± 0.23 and 3.65 ± 0.33.
Take FGGVIAFSSYNKQDNNCHFDAALV [SLC6A17]: the protein stability index by setting is: (treatment: DMSO) 2.42 ± 0.32; (treatment: MLN4924 1 uM, 8 h) 2.43 ± 0.45.
In the case of FGHVMHQICAQVSFFFPPVNLPIS [NLN], the protein stability index worked out at 2.71 ± 0.69 (treatment: DMSO) and 3.42 ± 0.31 (treatment: MLN4924 1 uM, 8 h).
The corresponding values for FGTQVENFSTFIKCIFTQFRIILG [PKD2L1] are 2.35 ± 0.058 and 2.24 ± 0.32.
Taken in the same sequence, the figures for FGYRPYDKNISPRENILVSLGAVG [SCD] were 2.03 ± 0.44 and 2.75 ± 0.53.
On to FHTMDELVEHYKKAPIFTSEHGEK [NCK2], for which the protein stability index came out at 3.88 ± 0.35 (treatment: DMSO) and 3.97 ± 0.27 (treatment: MLN4924 1 uM, 8 h).
Consider FKDEYKSENIKLREENEKLRLENS [CCDC89], for which the protein stability index (treatment: DMSO) was 5.25 ± 0.15 and the protein stability index (treatment: MLN4924 1 uM, 8 h) was found to be 5.2 ± 0.15.
Take FKRSVRRNLSYTCRANRNCPIDQH [NR2F2]: the protein stability index amounted to 2.71 ± 0.17 (treatment: DMSO) and 2.63 ± 0.33 (treatment: MLN4924 1 uM, 8 h).
Regarding FLCVLMSDWFNFHGHMCIAFELLG [CLK3], the protein stability index by setting is: (treatment: DMSO) 3.2 ± 0.3; (treatment: MLN4924 1 uM, 8 h) 3.11 ± 0.42.
The corresponding values for FLELAVGQRIRRGSIGVWHYICPR [SLC6A17] are 2.99 ± 0.97 and 2.18 ± 0.5.
Taken in the same sequence, the figures for FLGSTEVEQPKGTEVVRDAVRKLK [GULP1] were 4.62 ± 0.24 and 4.62 ± 0.16.
With FLIPMLEMVPEKRASAGECLRHPW [SRPK2], the protein stability index reads like this: (treatment: DMSO) 2.33 ± 0.26; (treatment: MLN4924 1 uM, 8 h) 2.2 ± 0.12.
The corresponding values for FLIVTVAWAAHTRLFQVVGKTDDT [TMEM175] are 2.86 ± 0.12 and 3.12 ± 0.23.
The corresponding values for FLVSTHTGEVRTARALLEDDSDTQ [PCDHGC5] are 4.63 ± 0.22 and 4.76 ± 0.24.
In the case of FLYVTGHIKEILITAGGENVPPIP [ACSBG2], the protein stability index came to 2.78 ± 0.93 (treatment: DMSO) and 2.81 ± 1.1 (treatment: MLN4924 1 uM, 8 h).
Take FPKNRVLEGVIDRYQQSKAAALKC [TRIM9]: the protein stability index stood at 2.78 ± 0.14 (treatment: DMSO) and 3.2 ± 0.19 (treatment: MLN4924 1 uM, 8 h).
The corresponding values for FQESASTPETRAKFTQDNLCRAQR [TEKT4] are 4.48 ± 0.18 and 4.4 ± 0.25.
The corresponding values for FQKTKNLLTGETEADPEMIKRAED [CLPTM1] are 5.01 ± 0.42 and 5.31 ± 0.17.
Sequence FRLPGLSRREREPEPPAAVDFLEP [FCHO1] had a protein stability index (treatment: DMSO) of 4.24 ± 0.3 and a protein stability index (treatment: MLN4924 1 uM, 8 h) of 4.31 ± 0.33.
The corresponding values for FSALYWFNYELVKSWLNGFRPKDQ [SLC25A39] are 2.2 ± 0.39 and 2.61 ± 0.92.
FSDDCDLPSAQDINRLVGLQNTYM [GLT8D2]: the protein stability index stood at 3.68 ± 0.26 (treatment: DMSO) and 3.66 ± 0.11 (treatment: MLN4924 1 uM, 8 h).
The corresponding values for FSETHADPHNSRRGFFFSHVGWLL [SCD] are 2.66 ± 0.29 and 2.15 ± 0.21.
The corresponding values for FSHDLTLERKCEKRSVYIDARDEE [ZC3H15] are 4.47 ± 0.24 and 4.64 ± 0.34.
On to FSKASDSLQLVFGIELMEVDPIGH [MAGEA6], for which the protein stability index is 2.27 ± 0.56 (treatment: DMSO) and 2.42 ± 0.41 (treatment: MLN4924 1 uM, 8 h).
Regarding FTLKEEKPKMYFMTMIVSLAAVAW [ARL6IP1], the protein stability index came out at 3.4 ± 0.81 (treatment: DMSO) and 2.8 ± 0.86 (treatment: MLN4924 1 uM, 8 h).
